Data from publication PMC11362597, “Neutrophil-specific interactome of ARHGAP25 reveals novel partners and regulatory insights” (Scientific Reports, 2024).

T1: GST-fused recombinant ARHGAP25 (human, UniProt P42331 1-645)
T1 construct: also called GST-ARHGAP25; GST-tagged recombinant ARHGAP25
T1 sequence (looked up): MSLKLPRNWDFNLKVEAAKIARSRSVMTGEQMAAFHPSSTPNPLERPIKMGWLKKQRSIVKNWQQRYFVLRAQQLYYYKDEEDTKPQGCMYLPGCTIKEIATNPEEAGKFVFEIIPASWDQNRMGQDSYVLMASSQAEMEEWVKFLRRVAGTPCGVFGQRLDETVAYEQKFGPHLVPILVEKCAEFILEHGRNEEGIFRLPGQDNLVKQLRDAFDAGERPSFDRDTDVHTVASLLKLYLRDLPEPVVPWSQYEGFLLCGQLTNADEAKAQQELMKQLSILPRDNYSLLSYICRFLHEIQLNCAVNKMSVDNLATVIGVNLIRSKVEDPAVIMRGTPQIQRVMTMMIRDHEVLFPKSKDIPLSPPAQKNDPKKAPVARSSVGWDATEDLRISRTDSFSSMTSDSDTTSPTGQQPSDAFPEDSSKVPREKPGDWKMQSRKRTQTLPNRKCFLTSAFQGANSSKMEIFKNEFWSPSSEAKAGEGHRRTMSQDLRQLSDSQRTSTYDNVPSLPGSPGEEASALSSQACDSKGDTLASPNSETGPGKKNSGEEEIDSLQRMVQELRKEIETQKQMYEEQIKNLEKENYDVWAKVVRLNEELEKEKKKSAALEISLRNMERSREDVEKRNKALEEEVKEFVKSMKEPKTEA

B1: RHOG (natural protein)
chain: not shown
notes: RHOG, small GTPase of the Rac subfamily, endogenous in human neutrophilic granulocytes; In some pull-downs the lysate was loaded with GTPγS or GDPβS beforehand; source: endogenous, human neutrophilic granulocyte lysate
B2: RAB27A (natural protein, UniProt P51159 1-221, looked up)
chain: MSDGDYDYLIKFLALGDSGVGKTSVLYQYTDGKFNSKFITTVGIDFREKRVVYRASGPDGATGRGQRIHLQLWDTAGQERFRSLTTAFFRDAMGFLLLFDLTNEQSFLNVRNWISQLQMHAYCENPDIVLCGNKSDLEDQRVVKEEEAIALAEKYGIPYFETSAANGTNISQAIEMLLDLIMKRMERCVDKSWIPEGVVRSNGHASTDQLSEEKEKGACGC
notes: RAB27A, small GTPase, endogenous in human neutrophilic granulocytes; In some pull-downs the lysate was loaded with GTPγS or GDPβS beforehand; source: endogenous, human neutrophilic granulocyte lysate
B3: ARF4 (natural protein, UniProt P18085 1-180, looked up)
chain: MGLTISSLFSRLFGKKQMRILMVGLDAAGKTTILYKLKLGEIVTTIPTIGFNVETVEYKNICFTVWDVGGQDRIRPLWKHYFQNTQGLIFVVDSNDRERIQEVADELQKMLLVDELRDAVLLLFANKQDLPNAMAISEMTDKLGLQSLRNRTWYVQATCATQGTGLYEGLDWLSNELSKR
notes: ARF4, small GTPase, endogenous in human neutrophilic granulocytes; In some pull-downs the lysate was loaded with GTPγS or GDPβS beforehand; source: endogenous, human neutrophilic granulocyte lysate

What follows are binders tested against T1, GST-fused recombinant ARHGAP25 (assay: affinity purification with mass spectrometry; GST-ARHGAP25 on glutathione agarose beads incubated with neutrophil lysate loaded beforehand with GTPγS or GDPβS (15 mM EDTA, 15 min, RT; stopped with 60 mM MgCl2), 45 min, 4 °C; LFQ values of the two loadings compared). Details: one partner purified.

log2ΔFC of LFQ values, GTPγS-loaded against GDPβS-loaded lysate	Binder
0.589	B1
< 0.2	B2
< 0.2	B3
